Data from paper PMC7227486.

How the values were obtained:
[1] = biological target: infectious CHIKV particles (strain 181/25) (chikungunya virus strain 181/25); assay: cryo-EM structure
[2] = biological target: CHIKV virus-like particles (strain 37997), produced from C-E3-E2-6K-E1 (chikungunya virus strain 37997); assay: cryo-EM structure
[3] = biological target: CHIKV virus-like particles (strain 37997), produced from C-E3-E2-6K-E1 (chikungunya virus strain 37997); assay: SPR

Substance | stoichiometry N (Mxra8 proteins per particle) [1] | stoichiometry N (Mxra8 molecules per virion) [2] | KD, high affinity site (kinetically derived, two-site model) [3] | KD, lower affinity sites (kinetically derived, two-site model) [3]
mammalian cell-generated murine Mxra8 (residues 23-336), cleaved from Mxra8-HRV-Fc (from UniProt Q9DBV4 23-336) (domain or fragment) | 60 | 240 | – | –
recombinant murine Mxra8 (soluble; preparation not stated for this experiment) (from UniProt Q9DBV4 20-340) (domain or fragment) | – | – | 84 nM | 270 nM
